Experiments:
[1] = target: T1, TLR9^YFP (Homo sapiens, UniProt Q9NR96); test: Competition plate assay: TLR9^YFP binding to plate-bound biotinylated CpG-DNA 2006 in presence of competitor; conditions: plates coated with 0.3 μM biotin-CpG-DNA 2006; competitor added to TLR9^YFP lysate; FIGS. 5A-D
T1 construct: expressed in transfected cells; host or cells: HEK cells stably expressing TLR9^YFP, used as cellular lysate
T1 sequence (Q9NR96 26-1032): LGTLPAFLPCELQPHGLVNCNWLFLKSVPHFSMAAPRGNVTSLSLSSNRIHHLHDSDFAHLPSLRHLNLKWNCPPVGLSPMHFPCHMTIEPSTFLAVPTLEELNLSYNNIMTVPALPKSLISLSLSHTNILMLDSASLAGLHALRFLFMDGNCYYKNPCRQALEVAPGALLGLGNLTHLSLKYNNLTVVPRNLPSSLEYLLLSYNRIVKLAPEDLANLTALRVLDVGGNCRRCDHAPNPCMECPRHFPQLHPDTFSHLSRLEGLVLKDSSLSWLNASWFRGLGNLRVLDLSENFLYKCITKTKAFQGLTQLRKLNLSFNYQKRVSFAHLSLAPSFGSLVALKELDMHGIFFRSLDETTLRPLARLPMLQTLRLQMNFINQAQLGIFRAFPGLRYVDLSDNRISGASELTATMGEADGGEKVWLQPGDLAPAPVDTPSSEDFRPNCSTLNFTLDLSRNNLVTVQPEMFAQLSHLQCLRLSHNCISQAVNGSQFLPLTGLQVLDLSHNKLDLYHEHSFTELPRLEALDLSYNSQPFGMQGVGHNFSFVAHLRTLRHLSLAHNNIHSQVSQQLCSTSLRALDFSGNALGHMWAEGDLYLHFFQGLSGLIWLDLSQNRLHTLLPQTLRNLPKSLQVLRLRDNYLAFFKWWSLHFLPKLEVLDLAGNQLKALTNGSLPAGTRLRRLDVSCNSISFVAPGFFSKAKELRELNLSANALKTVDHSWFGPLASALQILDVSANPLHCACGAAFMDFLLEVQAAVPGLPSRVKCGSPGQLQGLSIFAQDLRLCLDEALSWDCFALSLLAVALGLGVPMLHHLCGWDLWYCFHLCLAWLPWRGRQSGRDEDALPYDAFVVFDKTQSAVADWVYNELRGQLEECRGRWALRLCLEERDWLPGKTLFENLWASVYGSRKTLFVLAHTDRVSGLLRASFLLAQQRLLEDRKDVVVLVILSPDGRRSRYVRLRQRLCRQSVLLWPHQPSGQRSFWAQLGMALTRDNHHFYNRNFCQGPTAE
Description: This assay can be adapted for use in drug-screening applications. For example, the interaction of TLR9 with CpG-DNA reflects a clinically important receptor/ligand interaction since a variety of autoimmune diseases are thought to be based on the interaction of DNA-antibody complexes with this receptor (Leadbetter et al., 2002, Nature 416:603-607). Thus, antagonists for this interaction are useful for the development of novel anti-inflammatory drugs. To examine the application of this assay to the identification of such compounds (e.g., compounds that increase or decrease the interaction) and so are potential drugs for ameliorating TLR-related disorders, a competition assay was developed that was based on the basic plate assay described above. The competition assay was performed essentially as described above for the plate assay. In addition, non-biotinylated CpG-DNA (“cold ligand”) or other compounds that interfere with TLR9 signaling (R848 or bacterial DNA) were added to the TLR9-containing lysates. The ability of the various compounds to inhibit binding of TLR9^YFP to the plate-bound biotinylated CpG-DNA was then evaluated.
In the assay, NeutrAvidin™ plates (Pierce) were coated with 0.3 μM biotin-CpG-DNA 2006 as described above. […]

[2] = target: T2, TLR9 (Homo sapiens, UniProt Q9NR96); test: TLR9 signaling in TLR9-expressing HEK cells; format: cell-based
T2 construct: expressed in transfected cells; host or cells: HEK293 cells stably expressing TLR^FP
T2 sequence (Q9NR96 26-1032): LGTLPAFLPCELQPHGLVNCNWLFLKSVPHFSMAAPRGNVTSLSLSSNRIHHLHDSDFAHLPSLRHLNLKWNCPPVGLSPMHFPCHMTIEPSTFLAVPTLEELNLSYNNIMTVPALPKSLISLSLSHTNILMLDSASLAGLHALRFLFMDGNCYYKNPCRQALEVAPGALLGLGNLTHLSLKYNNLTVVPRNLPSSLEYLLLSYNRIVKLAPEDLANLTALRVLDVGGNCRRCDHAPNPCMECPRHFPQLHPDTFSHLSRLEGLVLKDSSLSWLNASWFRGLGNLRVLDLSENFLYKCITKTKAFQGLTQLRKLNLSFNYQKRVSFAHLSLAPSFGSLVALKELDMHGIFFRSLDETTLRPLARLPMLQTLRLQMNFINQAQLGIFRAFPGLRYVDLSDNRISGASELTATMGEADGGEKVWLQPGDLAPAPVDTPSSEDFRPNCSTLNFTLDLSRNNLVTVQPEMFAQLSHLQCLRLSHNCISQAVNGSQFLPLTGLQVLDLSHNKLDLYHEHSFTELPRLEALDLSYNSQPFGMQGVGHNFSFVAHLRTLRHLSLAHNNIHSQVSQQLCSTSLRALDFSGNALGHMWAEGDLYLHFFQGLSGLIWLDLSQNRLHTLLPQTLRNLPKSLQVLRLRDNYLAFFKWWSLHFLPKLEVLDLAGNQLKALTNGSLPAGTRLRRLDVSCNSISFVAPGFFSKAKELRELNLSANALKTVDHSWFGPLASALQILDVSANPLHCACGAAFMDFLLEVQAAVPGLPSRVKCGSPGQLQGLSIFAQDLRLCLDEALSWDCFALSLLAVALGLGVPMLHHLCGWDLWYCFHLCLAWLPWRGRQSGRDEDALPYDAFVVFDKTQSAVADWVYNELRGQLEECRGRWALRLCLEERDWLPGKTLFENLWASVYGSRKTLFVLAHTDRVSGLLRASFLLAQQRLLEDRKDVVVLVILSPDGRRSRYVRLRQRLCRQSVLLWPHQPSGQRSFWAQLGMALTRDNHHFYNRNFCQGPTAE
Method: Cellular activation was assessed by NF-κB-luciferase reporter assay. Briefly, HEK293 cells that stably express a TLR^FP or empty vector (pcDNA) were seeded into 96-well tissue culture plates at a density of 2×10^4 cells/well. The following day, cells were transiently transfected with luciferase reporter genes using Genejuice (Novagen) per the manufacturer's recommendations. In order to assess NF-κB activation, an NF-κB-luciferase reporter gene consisting of an artificial promoter composed of a multimer of five NF-κB sites driving the firefly luciferase gene, was co-transfected with a constitutively active Renilla-luciferase reporter gene (Promega, Madison, Wis.).

[3] = target: T3, TLR2:Fc (Homo sapiens, UniProt O60603); test: Cell-free ELISA: plated TLR2:Fc probed with biotinylated ligand; format: binding; conditions: FIG. 8B
T3 construct: a fusion protein consisting of the extracellular domain of TLR2 and the mouse Fc portion of immunoglobulin G, isotype 2a
T3 sequence (O60603 21-588 limits assumed, species assumed): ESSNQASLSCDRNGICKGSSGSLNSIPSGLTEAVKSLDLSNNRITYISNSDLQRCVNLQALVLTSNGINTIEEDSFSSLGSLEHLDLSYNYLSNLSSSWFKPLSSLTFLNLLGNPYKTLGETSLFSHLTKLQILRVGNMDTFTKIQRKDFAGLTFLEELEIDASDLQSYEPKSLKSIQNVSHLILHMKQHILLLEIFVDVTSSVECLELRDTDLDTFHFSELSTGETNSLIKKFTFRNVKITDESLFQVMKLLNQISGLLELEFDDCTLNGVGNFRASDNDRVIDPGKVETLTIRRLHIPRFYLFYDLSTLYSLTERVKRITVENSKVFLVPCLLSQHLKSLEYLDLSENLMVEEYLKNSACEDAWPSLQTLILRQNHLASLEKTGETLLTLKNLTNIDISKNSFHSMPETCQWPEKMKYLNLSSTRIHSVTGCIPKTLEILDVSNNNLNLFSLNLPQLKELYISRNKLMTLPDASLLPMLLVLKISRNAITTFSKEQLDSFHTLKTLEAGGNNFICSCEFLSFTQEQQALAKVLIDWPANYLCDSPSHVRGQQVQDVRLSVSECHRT
Method: (§1) Briefly, various TLR2 ligands were plated on plastic in carbonate buffer pH 9 for two hours at different concentrations (X axis) in duplicate points. After washing (PBS-0.05% Tween 20), a fusion protein consisting of the extracellular domain of TLR2 and the mouse Fc portion of immunoglobulin G, isotype 2a (TLR2:Fc, see U.S. Provisional Patent Application Ser. No. 60/598,774), was added at 1 mg/ml (0.1 mg/well).
(§2) In a similar setting, the TLR2:Fc fusion protein and the related TLR4:Fc, were plated on plastic and the biotinylated ligand used to probe the wells. The TLR2 bound biotinylated protein was reveled using a HRP conjugated anti biotin polyclonal antiserum (NEB).

[4] = target: T4, TLR4:Fc (Homo sapiens, UniProt O00206); test: Cell-free ELISA: plated TLR4:Fc probed with biotinylated ligand; format: binding; conditions: FIG. 8B
T4 construct: the TLR2:Fc fusion protein and the related TLR4:Fc, were plated on plastic
T4 sequence (O00206 24-631 limits assumed, species assumed): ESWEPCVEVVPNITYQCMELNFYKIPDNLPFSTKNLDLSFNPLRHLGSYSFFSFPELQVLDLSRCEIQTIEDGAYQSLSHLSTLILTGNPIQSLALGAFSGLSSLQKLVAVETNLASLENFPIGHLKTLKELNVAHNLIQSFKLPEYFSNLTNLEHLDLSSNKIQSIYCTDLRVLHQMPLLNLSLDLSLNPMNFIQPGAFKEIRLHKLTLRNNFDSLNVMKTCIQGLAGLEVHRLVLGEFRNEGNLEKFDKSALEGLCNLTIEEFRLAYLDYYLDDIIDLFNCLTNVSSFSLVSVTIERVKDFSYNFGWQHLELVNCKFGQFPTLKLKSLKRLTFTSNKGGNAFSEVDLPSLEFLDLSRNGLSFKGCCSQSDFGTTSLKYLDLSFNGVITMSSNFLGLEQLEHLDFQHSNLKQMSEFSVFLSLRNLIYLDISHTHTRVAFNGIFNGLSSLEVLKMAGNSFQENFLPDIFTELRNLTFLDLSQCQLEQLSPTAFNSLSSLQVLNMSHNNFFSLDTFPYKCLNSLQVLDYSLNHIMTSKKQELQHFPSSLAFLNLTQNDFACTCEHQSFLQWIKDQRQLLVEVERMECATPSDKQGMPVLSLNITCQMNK
Method: as §1, §2

[5] = target: T5, TLR2 (Homo sapiens, UniProt O60603); test: NF-κB luciferase reporter assay in 293 cells stably expressing TLR2; format: cell-based; conditions: 0.01-10 μg/ml stimulant; FIG. 7B
T5 construct: expressed in transfected cells; host or cells: 293 (HEK 293) cells stably expressing TLR2
T5 sequence (O60603 21-784, species assumed): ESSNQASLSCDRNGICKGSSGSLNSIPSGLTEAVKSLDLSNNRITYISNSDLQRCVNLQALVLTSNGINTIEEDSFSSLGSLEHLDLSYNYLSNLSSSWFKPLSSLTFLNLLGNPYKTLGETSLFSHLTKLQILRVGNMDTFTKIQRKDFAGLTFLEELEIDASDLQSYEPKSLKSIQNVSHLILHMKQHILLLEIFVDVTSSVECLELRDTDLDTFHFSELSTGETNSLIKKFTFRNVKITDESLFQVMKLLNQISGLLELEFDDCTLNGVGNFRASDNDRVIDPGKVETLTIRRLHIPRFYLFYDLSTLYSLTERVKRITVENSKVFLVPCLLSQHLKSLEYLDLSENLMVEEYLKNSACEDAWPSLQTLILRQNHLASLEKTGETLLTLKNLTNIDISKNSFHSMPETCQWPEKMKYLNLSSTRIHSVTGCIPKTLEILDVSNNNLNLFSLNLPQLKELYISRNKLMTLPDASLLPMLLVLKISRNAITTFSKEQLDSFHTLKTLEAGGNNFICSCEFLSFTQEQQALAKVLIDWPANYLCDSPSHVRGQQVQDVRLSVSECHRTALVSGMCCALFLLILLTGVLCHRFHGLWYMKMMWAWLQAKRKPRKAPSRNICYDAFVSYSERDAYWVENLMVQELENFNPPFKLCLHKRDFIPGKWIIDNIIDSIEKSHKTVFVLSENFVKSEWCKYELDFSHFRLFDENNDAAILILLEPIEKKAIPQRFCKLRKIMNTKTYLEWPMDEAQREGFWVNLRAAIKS
T5 sequence (Q15399 25-786 partner, species assumed): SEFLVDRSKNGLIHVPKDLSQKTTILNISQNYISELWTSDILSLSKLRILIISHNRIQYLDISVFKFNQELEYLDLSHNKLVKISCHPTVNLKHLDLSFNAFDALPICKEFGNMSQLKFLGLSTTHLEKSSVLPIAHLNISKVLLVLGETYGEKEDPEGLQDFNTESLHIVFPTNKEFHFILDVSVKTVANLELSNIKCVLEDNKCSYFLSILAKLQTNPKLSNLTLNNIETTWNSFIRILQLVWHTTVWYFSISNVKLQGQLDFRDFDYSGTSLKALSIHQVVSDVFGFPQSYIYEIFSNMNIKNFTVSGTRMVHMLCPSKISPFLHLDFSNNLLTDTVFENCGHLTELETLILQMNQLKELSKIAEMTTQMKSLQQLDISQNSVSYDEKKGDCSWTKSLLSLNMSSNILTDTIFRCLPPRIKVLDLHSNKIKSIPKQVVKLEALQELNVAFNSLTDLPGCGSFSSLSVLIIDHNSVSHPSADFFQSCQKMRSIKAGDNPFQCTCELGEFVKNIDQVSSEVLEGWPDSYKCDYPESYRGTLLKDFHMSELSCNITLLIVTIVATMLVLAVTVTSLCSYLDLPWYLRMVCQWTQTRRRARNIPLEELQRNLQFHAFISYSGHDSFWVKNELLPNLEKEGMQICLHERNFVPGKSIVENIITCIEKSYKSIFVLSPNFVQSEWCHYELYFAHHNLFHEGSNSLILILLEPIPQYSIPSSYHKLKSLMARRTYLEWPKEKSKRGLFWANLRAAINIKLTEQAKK
Method: 293 cells stably expressing TLR4/MD-2 (as described in Visintin et al., 2003, J. Biol. Chem., 278(48):48313-48320) or TLR2 were stimulated using lipopolysaccharide (LPS) or PorinB, and the extent of activation measured as the activation of a NF-κB-dependent reporter gene encoding for the Luciferase gene. To measure NF-κB activation, 2 μg of a reporter plasmid in which NF-κB drives the synthesis of luciferase was transiently cotransfected with 5 μg of the indicated cDNA by lipofection (GeneJuice) in 10-cm tissue culture dishes following the manufacturer's recommendations. The following morning, cells were seeded at a density of 50,000 cells/well in a 96-well plate, allowed to recover for 5 hours, and stimulated as indicated between 6 and 18 hours. Luciferase activity was measured with a plate reader luminometer (Victor^2, PerkinElmer Life Sciences) using chemicals provided with the luciferase assay system (Promega, Madison, Wis.). All data are presented as the means ±S.D. of triplicate well readings, normalized to a value of 1.0 in comparison with an unstimulated negative control.

CCOCc1nc2c(N)nc3ccccc3c2n1CC(C)(C)O [R848]
Inhibition of TLR9 binding to biotinylated immobilized CpG-DNA [1]: did not interfere with the binding of TLR9 to CpG-DNA | Inhibition of TLR9 signaling [2]: inhibited TLR9 signaling in a dose dependent manner

bacterial alkaline phosphatase (BAP): bacterial alkaline phosphatase
Binding of biotinylated ligand to plated TLR2:Fc [3]: bind to TLR2:Fc | Binding of biotinylated ligand to plated TLR4:Fc [4]: not to TLR4:Fc

B1: PorinB: the protein PorinB from Neisseria meningitidis (protein)
chain: DVTLYGTIKAGVETSRSVFHQNGQVTEVTTATGIVDLGSKIGFKGQEDLGNGLKAIWQVEQKASIAGTDSGWGNRQSFIGLKGGFGKLRVGRLNSVLKDTGDINPWDSKSDYLGVNKIAEPEARLISVRYDSPEFAGLSGSVQYALNDNAGRHNSESYHAGFNYKNGGFFVQYGGAYKRHHQVQEGLNIEKYQIHRLVSGYDNDALYASVAVQQQDAKLTDASNSHNSQTEVAATLAYRFGNVTPRVSYAHGFKGLVDDADIGNEYDQVVVGAEYDFSKRTSALVSAGWLQEGKGENKFVATAGGVGLRHKF
NF-κB reporter activation in TLR2 expressing cells [5]: efficiently activates | Binding of biotinylated ligand to plated TLR2:Fc [3]: specifically bound | Binding of biotinylated ligand to plated TLR4:Fc [4]: did not
